Columns and labels:
HLA-B*0702 [1] = molecular target: T1, HLA-B*0702 (human); assay: inhibition of 125I standard peptide binding to purified HLA
T1 construct: also called B7 supertype prototype molecule

HLA-B*0702 [2] = molecular target: HLA-B*0702 (human); assay: competition with 125I-labelled probe peptide for purified HLA, gel filtration

Binder | relative binding ratio (HLA-B*0702 [1]) | relative binding ratio (HLA-B*0702 [2])
SPMCKGSRCW (also called Her2/neu.196) [HER2/neu peptide, position 196, 10 amino acids] | 0.0021 ratio to standard peptide | –
NPEYLGLDVPV (also called Her2/neu.1245) [HER2/neu peptide, position 1245, 11 amino acids] | -0.0002 ratio to standard peptide | –
NPEGRYTFGA (also called Her2/neu.284) [HER2/neu peptide, position 284, 10 amino acids] | 0.0001 ratio to standard peptide | –
PPICTIDV (also called Her2/neu.944) [HER2/neu peptide, position 944, 8 amino acids] | -0.0006 ratio to standard peptide | –
RPEDECVGEGL (also called Her2/neu.499) [HER2/neu peptide, position 499, 11 amino acids] | -0.0002 ratio to standard peptide | –
SPLTSIISAVV (also called Her2/neu.649) [HER2/neu peptide, position 649, 11 amino acids] | 0.025 ratio to standard peptide | –
SPREGPLPA (also called Her2/neu.1151) [HER2/neu peptide, position 1151, 9 amino acids] | 0.64 ratio to standard peptide | –
SPGGLRELQL (also called Her2/neu.133) [HER2/neu peptide, position 133, 10 amino acids] | 0.058 ratio to standard peptide | –
PPAFSPAFDNL (also called Her2/neu.1210) [HER2/neu peptide, position 1210, 11 amino acids] | -0.0002 ratio to standard peptide | –
SPAFDNLYYW (also called Her2/neu.1214) [HER2/neu peptide, position 1214, 10 amino acids] | 0.0001 ratio to standard peptide | –
VPLQRLRI (also called Her2/neu.94) [HER2/neu peptide, position 94, 8 amino acids] | 0.002 ratio to standard peptide | –
SPGGLREL (also called Her2/neu.133) [HER2/neu peptide, position 133, 8 amino acids] | 0.055 ratio to standard peptide | –
PPICTIDVYMI (also called Her2/neu.944) [HER2/neu peptide, position 944, 11 amino acids] | 0.0064 ratio to standard peptide | –
SPAFDNLYY (also called Her2/neu.1214) [HER2/neu peptide, position 1214, 9 amino acids] | 0.0001 ratio to standard peptide | –
QPHPPPAF (also called Her2/neu.1206) [HER2/neu peptide, position 1206, 8 amino acids] | 0.0002 ratio to standard peptide | –
PPAFSPAF (also called Her2/neu.1210) [HER2/neu peptide, position 1210, 8 amino acids] | -0.0002 ratio to standard peptide | –
SPYVSRLL (also called Her2/neu.779) [HER2/neu peptide, position 779, 8 amino acids] | 0.044 ratio to standard peptide | –
SPLTSIISAV (also called Her2/neu.649) [HER2/neu peptide, position 649, 10 amino acids] | 0.09 ratio to standard peptide | –
PPPAFSPA (also called Her2/neu.1209) [HER2/neu peptide, position 1209, 8 amino acids] | -0.0002 ratio to standard peptide | –
SPKANKEIL (also called Her2/neu.760) [HER2/neu peptide, position 760, 9 amino acids] | 0.12 ratio to standard peptide | –
SPAFDNLY (also called Her2/neu.1214) [HER2/neu peptide, position 1214, 8 amino acids] | -0.0002 ratio to standard peptide | –
QPEYVNQPDV (also called Her2/neu.1136) [HER2/neu peptide, position 1136, 10 amino acids] | 0.0001 ratio to standard peptide | –
NPQLCYQDTIL (also called Her2/neu.158) [HER2/neu peptide, position 158, 11 amino acids] | -0.0002 ratio to standard peptide | –
SPETHLDML (also called Her2/neu.38) [HER2/neu peptide, position 38, 9 amino acids] | 0.0005 ratio to standard peptide | –
QPEQLQVF (also called Her2/neu.393) [HER2/neu peptide, position 393, 8 amino acids] | -0.0002 ratio to standard peptide | –

Binder | relative binding ratio (HLA-B*0702 [1]) | relative binding ratio (HLA-B*0702 [2])
SPLAPSEGA (also called Her2/neu.1073) [HER2/neu peptide, position 1073, 9 amino acids] | 0.003 ratio to standard peptide | –
VPLQRLRIV (also called Her2/neu.94) [HER2/neu peptide, position 94, 9 amino acids] | 0.0077 ratio to standard peptide | –
PPPAFSPAF (also called Her2/neu.1209) [HER2/neu peptide, position 1209, 9 amino acids] | 0.0002 ratio to standard peptide | –
SPKANKEI (also called Her2/neu.760) [HER2/neu peptide, position 760, 8 amino acids] | 0.058 ratio to standard peptide | –
TPVTGASPGGL (also called Her2/neu.127) [HER2/neu peptide, position 127, 11 amino acids] | -0.0002 ratio to standard peptide | –
SPLDSTFY (also called Her2/neu.998) [HER2/neu peptide, position 998, 8 amino acids] | -0.0006 ratio to standard peptide | –
APLQPEQLQV [HER2/neu peptide, position 390, 10 amino acids] | – | 0.0001 ratio (IC50 of standard / IC50 of test peptide)
SPLTSIISA (also called Her2/neu.649) [HER2/neu peptide, position 649, 9 amino acids] | 0.015 ratio to standard peptide | –
WPDSLPDL (also called Her2/neu.415) [HER2/neu peptide, position 415, 8 amino acids] | 0.02 ratio to standard peptide | –
VPLPSETDGY (also called Her2/neu.1118) [HER2/neu peptide, position 1118, 10 amino acids] | 0.0001 ratio to standard peptide | –
NPEYLTPQGGA (also called Her2/neu.1193) [HER2/neu peptide, position 1193, 11 amino acids] | -0.0003 ratio to standard peptide | –
QPPICTIDVYM (also called Her2/neu.943) [HER2/neu peptide, position 943, 11 amino acids] | 0.002 ratio to standard peptide | –
MPNQAQMRI (T0001 prints N at residue 706; also called Her2/neu.706) [HER2/neu peptide, position 706, 9 amino acids] | 0.009 ratio to standard peptide | –
PPSTFKGTPTA (also called Her2/neu.1233) [HER2/neu peptide, position 1233, 11 amino acids] | -0.0003 ratio to standard peptide | –
PPERGAPPSTF (also called Her2/neu.1227) [HER2/neu peptide, position 1227, 11 amino acids] | -0.0003 ratio to standard peptide | –
MPNPEGRYTF (also called Her2/neu.282) [HER2/neu peptide, position 282, 10 amino acids] | 0.0001 ratio to standard peptide | –
SPYVSRLLGI (also called Her2/neu.779) [HER2/neu peptide, position 779, 10 amino acids] | 0.1 ratio to standard peptide | –
PPGAASTQV (also called Her2/neu.17) [HER2/neu peptide, position 17, 9 amino acids] | 0.0001 ratio to standard peptide | –
QPQNGSVTCF (also called Her2/neu.568) [HER2/neu peptide, position 568, 10 amino acids] | 0.0004 ratio to standard peptide | –
APGAGGMV [HER2/neu peptide, position 1036, 8 amino acids] | – | 0.0063 ratio (IC50 of standard / IC50 of test peptide)
QPEQLQVFETL (also called Her2/neu.393) [HER2/neu peptide, position 393, 11 amino acids] | -0.0002 ratio to standard peptide | –
NPEYLGLDV (also called Her2/neu.1245) [HER2/neu peptide, position 1245, 9 amino acids] | 0.0001 ratio to standard peptide | –
TPSGAMPNQA (T0001 prints N at residue 706; also called Her2/neu.701) [HER2/neu peptide, position 701, 10 amino acids] | 0.0001 ratio to standard peptide | –
WPDSLPDLSV (also called Her2/neu.415) [HER2/neu peptide, position 415, 10 amino acids] | 0.0044 ratio to standard peptide | –
SPGKNGVVKDV (also called Her2/neu.1174) [HER2/neu peptide, position 1174, 11 amino acids] | -0.0002 ratio to standard peptide | –

Binder | relative binding ratio (HLA-B*0702 [1]) | relative binding ratio (HLA-B*0702 [2])
PPSPREGPL (also called Her2/neu.1149) [HER2/neu peptide, position 1149, 9 amino acids] | 0.0054 ratio to standard peptide | –
SPGKNGVV (also called Her2/neu.1174) [HER2/neu peptide, position 1174, 8 amino acids] | 0.023 ratio to standard peptide | –
VPIKWMALESI (also called Her2/neu.884) [HER2/neu peptide, position 884, 11 amino acids] | 0.0017 ratio to standard peptide | –
QPPSPREGPL (also called Her2/neu.1148) [HER2/neu peptide, position 1148, 10 amino acids] | 0.0014 ratio to standard peptide | –
MPYGCLLDHV (also called Her2/neu.801) [HER2/neu peptide, position 801, 10 amino acids] | 0.0085 ratio to standard peptide | –
SPNHVKITDF (also called Her2/neu.855) [HER2/neu peptide, position 855, 10 amino acids] | 0.0016 ratio to standard peptide | –
APLQPEQL [HER2/neu peptide, position 390, 8 amino acids] | – | < 0.0006 ratio (IC50 of standard / IC50 of test peptide)
QPPICTIDVY (also called Her2/neu.943) [HER2/neu peptide, position 943, 10 amino acids] | 0.0001 ratio to standard peptide | –
RPRFRELVSEF (also called Her2/neu.966) [HER2/neu peptide, position 966, 11 amino acids] | 1.3 ratio to standard peptide | –
PPICTIDVY (also called Her2/neu.944) [HER2/neu peptide, position 944, 9 amino acids] | 0.0001 ratio to standard peptide | –
NPHQALLHTA (also called Her2/neu.488) [HER2/neu peptide, position 488, 10 amino acids] | 0.0005 ratio to standard peptide | –
RPRFRELV (also called Her2/neu.966) [HER2/neu peptide, position 966, 8 amino acids] | 0.041 ratio to standard peptide | –
VPLPSETDGYV (also called Her2/neu.1118) [HER2/neu peptide, position 1118, 11 amino acids] | -0.0002 ratio to standard peptide | –
NPQLCYQDTI (also called Her2/neu.158) [HER2/neu peptide, position 158, 10 amino acids] | 0.0001 ratio to standard peptide | –
SPETHLDM (also called Her2/neu.38) [HER2/neu peptide, position 38, 8 amino acids] | 0.0014 ratio to standard peptide | –
MPNQAQMRIL (T0001 prints N at residue 706; also called Her2/neu.706) [HER2/neu peptide, position 706, 10 amino acids] | 0.049 ratio to standard peptide | –
TPTAENPEYL (also called Her2/neu.1240) [HER2/neu peptide, position 1240, 10 amino acids] | 0.0002 ratio to standard peptide | –
SPREGPLPAA (also called Her2/neu.1151) [HER2/neu peptide, position 1151, 10 amino acids] | 0.46 ratio to standard peptide | –
VPIKWMAL (also called Her2/neu.884) [HER2/neu peptide, position 884, 8 amino acids] | 1.4 ratio to standard peptide | –
NPEGRYTF (also called Her2/neu.284) [HER2/neu peptide, position 284, 8 amino acids] | -0.0002 ratio to standard peptide | –
QPHPPPAFSPA (also called Her2/neu.1206) [HER2/neu peptide, position 1206, 11 amino acids] | 0.0003 ratio to standard peptide | –
QPPICTIDV (also called Her2/neu.943) [HER2/neu peptide, position 943, 9 amino acids] | 0.0001 ratio to standard peptide | –
PPICTIDVYM (also called Her2/neu.944) [HER2/neu peptide, position 944, 10 amino acids] | 0.0004 ratio to standard peptide | –
SPLDSTFYRSL (also called Her2/neu.998) [HER2/neu peptide, position 998, 11 amino acids] | 0.064 ratio to standard peptide | –
